Measured values published in patent US20200353078A1.

How the values were obtained:
[1] = target: Human IL-33 (Axxora/Adipogen AG-40B-0038) (human) (UniProt O95760); assay: HTRF epitope competition: purified scFv against IL330101 IgG for biotinylated human IL-33
[2] = target: T1, Human IL-33 Flag®His (human); assay: HTRF competition: purified scFv titrated against human ST2-Fc for FLAG-His human IL-33
T1 sequence: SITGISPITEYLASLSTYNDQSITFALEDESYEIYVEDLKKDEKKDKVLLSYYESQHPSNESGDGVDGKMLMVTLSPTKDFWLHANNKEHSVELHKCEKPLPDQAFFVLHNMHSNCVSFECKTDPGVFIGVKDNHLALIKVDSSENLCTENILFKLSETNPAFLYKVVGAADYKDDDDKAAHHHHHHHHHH

[3] = target: ST2 on human umbilical vein endothelial cells (human) (UniProt Q01638); assay: cell-based or functional assay
Sequence of ST2 on human umbilical vein endothelial cells (human) (Q01638 19-556): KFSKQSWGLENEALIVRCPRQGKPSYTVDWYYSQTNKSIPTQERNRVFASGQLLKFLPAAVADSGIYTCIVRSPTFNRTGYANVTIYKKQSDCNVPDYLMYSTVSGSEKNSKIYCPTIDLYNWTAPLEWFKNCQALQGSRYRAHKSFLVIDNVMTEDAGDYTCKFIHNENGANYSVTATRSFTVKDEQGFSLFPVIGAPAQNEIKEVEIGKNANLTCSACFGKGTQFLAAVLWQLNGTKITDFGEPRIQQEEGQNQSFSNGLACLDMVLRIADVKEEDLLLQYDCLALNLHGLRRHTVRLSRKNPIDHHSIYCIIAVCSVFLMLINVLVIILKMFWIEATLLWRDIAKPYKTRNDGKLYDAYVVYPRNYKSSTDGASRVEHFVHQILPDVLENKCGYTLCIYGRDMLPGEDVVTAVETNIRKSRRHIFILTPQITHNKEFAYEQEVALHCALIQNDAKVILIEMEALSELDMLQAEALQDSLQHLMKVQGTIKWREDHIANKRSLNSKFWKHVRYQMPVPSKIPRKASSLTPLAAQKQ

B1: IL330259 scFv (scFv, part only; not given: linker, domain order and tags, V domains shown, not shown: another chain or arm of the molecule; small tags and cut ends)
VH: EVQLLESGGGLVQPGGSLRLSCAASGFTFSSYAMSWVRQAPGKGLEWVSASTPWQGSTYYADSVKGRFTISRDNSKNTLYLQMNSLRAEDTAVYYCVRVVAGYFDSWGRGTLVTVSS
VL: SYVLTQPPSVSVSPGQTARITCSGDALPKQYAHWYQQKPGQAPALVIYKDTERPSGIPERFSGSSSGTTVTLTISGVQAEDEADYYCQSADSSGASRVFGGGTKVTVL
Question: B1 was tested. Which IC50 (read off the curve) [1] did it give?
Answer: 7 nM

B2: IL330020 scFv (scFv, part only; not given: linker, domain order and tags, V domains shown, not shown: another chain or arm of the molecule; small tags and cut ends)
VH: QVQLVQSGAEVKKPGASVKVSCKASGYTFTSYGISWVRQAPGQGLEWMGWISDYQGYTKYAEKFQGRVTMTTDTSTNTAYMELRSLRSDDTAVYYCARLYSSGWIRQYHFDYWGRGTLVTVSS
VL: SYELTQPPSVSVSPGQTASITCSGDNLKDKYVSWYQQKPGQAPVLVLYQDRKRPSGIPERFSGSNSGNTATLTISGTQAMDEADYYCQAWDSGTAFGGGTKVTVL
Question: For B2, which IC50 (read off the curve) [2] is on record?
Answer: 100 nM

B3: IL33-02 (ligand)
chain: MHHHHHHHHHHAAGLNDIFEAQKIEWHEAAIEGRSITGISPITEYLASLSTYNDQSITFALEDESYEIYVEDLKKDEKKDKVLLSYYESQHPSNESGDGVDGKMLMVTLSPTKDFWLHANNKEHSVELHKSEKPLPDQAFFVLHNMHSNCVSFECKTDPGVFIGVKDNHLALIKVDSSENLCTENILFKLSET
Question: B3 was tested. Which IC50 (nM) Untreated, HUVEC NFkB translocation assay [3] did it give?
Answer: 0.19 nM

B4: IL33-13 (ligand)
chain: MHHHHHHHHHHAAGLNDIFEAQKIEWHEAAIEGRSITGISPITEYLASLSTYNDQSITFALEDESYEIYVEDLKKDEKKDKVLLSYYESQHPSNESGDGVDGKMLMVTLSPTKDFWLHANNKEHSVELHKSEKPLPDQAFFVLHNMHSNSVSFECKTDPGVFIGVKDNHLALIKVDSSENLSTENILFKLSET
Question: Which IC50 (nM) Untreated, HUVEC NFkB translocation assay [3] does the source give for B4 here?
Answer: 0.08 nM

B5: IL33-16 (ligand)
chain: MHHHHHHHHHHAAGLNDIFEAQKIEWHEAAIEGRSITGISPITEYLASLSTYNDQSITFALEDESYEIYVEDLKKDEKKDKVLLSYYESQHPSNESGDGVDGKMLMVTLSPTKDFWLHANNKEHSVELHKSEKPLPDQAFFVLHNMHSNSVSFESKTDPGVFIGVKDNHLALIKVDSSENLSTENILFKLSET
Question: Which IC50 (nM) Untreated, HUVEC NFkB translocation assay [3] does the source give for B5 here?
Answer: 0.17 nM

B6: IL33-08 (ligand)
chain: MHHHHHHHHHHAAGLNDIFEAQKIEWHEAAIEGRSITGISPITEYLASLSTYNDQSITFALEDESYEIYVEDLKKDEKKDKVLLSYYESQHPSNESGDGVDGKMLMVTLSPTKDFWLHANNKEHSVELHKSEKPLPDQAFFVLHNMHSNCVSFESKTDPGVFIGVKDNHLALIKVDSSENLCTENILFKLSET
Question: Which IC50 (nM) Untreated, HUVEC NFkB translocation assay [3] does the source give for B6 here?
Answer: 0.21 nM

B7: IL33-14 (ligand)
chain: MHHHHHHHHHHAAGLNDIFEAQKIEWHEAAIEGRSITGISPITEYLASLSTYNDQSITFALEDESYEIYVEDLKKDEKKDKVLLSYYESQHPSNESGDGVDGKMLMVTLSPTKDFWLHANNKEHSVELHKSEKPLPDQAFFVLHNMHSNCVSFESKTDPGVFIGVKDNHLALIKVDSSENLSTENILFKLSET
Question: How did the IC50 (nM) Untreated, HUVEC NFkB translocation assay [3] turn out when B7 was run?
Answer: 0.14 nM

B8: IL33-12 (ligand)
chain: MHHHHHHHHHHAAGLNDIFEAQKIEWHEAAIEGRSITGISPITEYLASLSTYNDQSITFALEDESYEIYVEDLKKDEKKDKVLLSYYESQHPSNESGDGVDGKMLMVTLSPTKDFWLHANNKEHSVELHKSEKPLPDQAFFVLHNMHSNSVSFESKTDPGVFIGVKDNHLALIKVDSSENLCTENILFKLSET
Question: Which IC50 (nM) Untreated, HUVEC NFkB translocation assay [3] does the source give for B8 here?
Answer: 0.39 nM

B9: IL33-06 (ligand)
chain: MHHHHHHHHHHAAGLNDIFEAQKIEWHEAAIEGRSITGISPITEYLASLSTYNDQSITFALEDESYEIYVEDLKKDEKKDKVLLSYYESQHPSNESGDGVDGKMLMVTLSPTKDFWLHANNKEHSVELHKSEKPLPDQAFFVLHNMHSNSVSFECKTDPGVFIGVKDNHLALIKVDSSENLCTENILFKLSET
Question: Which IC50 (nM) Untreated, HUVEC NFkB translocation assay [3] does the source give for B9 here?
Answer: 0.28 nM

B10: IL33-09 (ligand)
chain: MHHHHHHHHHHAAGLNDIFEAQKIEWHEAAIEGRSITGISPITEYLASLSTYNDQSITFALEDESYEIYVEDLKKDEKKDKVLLSYYESQHPSNESGDGVDGKMLMVTLSPTKDFWLHANNKEHSVELHKCEKPLPDQAFFVLHNMHSNSVSFECKTDPGVFIGVKDNHLALIKVDSSENLSTENILFKLSET
Question: With B10 as the binder, how does the IC50 (nM) Untreated, HUVEC NFkB translocation assay [3] read?
Answer: 0.2 nM

B11: IL33-10 (ligand)
chain: MHHHHHHHHHHAAGLNDIFEAQKIEWHEAAIEGRSITGISPITEYLASLSTYNDQSITFALEDESYEIYVEDLKKDEKKDKVLLSYYESQHPSNESGDGVDGKMLMVTLSPTKDFWLHANNKEHSVELHKCEKPLPDQAFFVLHNMHSNSVSFESKTDPGVFIGVKDNHLALIKVDSSENLCTENILFKLSET
Question: B11 was tested. Which IC50 (nM) Untreated, HUVEC NFkB translocation assay [3] did it give?
Answer: 0.61 nM

B12: IL33-15 (ligand)
chain: MHHHHHHHHHHAAGLNDIFEAQKIEWHEAAIEGRSITGISPITEYLASLSTYNDQSITFALEDESYEIYVEDLKKDEKKDKVLLSYYESQHPSNESGDGVDGKMLMVTLSPTKDFWLHANNKEHSVELHKCEKPLPDQAFFVLHNMHSNSVSFESKTDPGVFIGVKDNHLALIKVDSSENLSTENILFKLSET
Question: For B12, which IC50 (nM) Untreated, HUVEC NFkB translocation assay [3] is on record?
Answer: 0.12 nM

B13: IL33-05 (ligand)
chain: MHHHHHHHHHHAAGLNDIFEAQKIEWHEAAIEGRSITGISPITEYLASLSTYNDQSITFALEDESYEIYVEDLKKDEKKDKVLLSYYESQHPSNESGDGVDGKMLMVTLSPTKDFWLHANNKEHSVELHKCEKPLPDQAFFVLHNMHSNCVSFECKTDPGVFIGVKDNHLALIKVDSSENLSTENILFKLSET
Question: B13 was tested. Which IC50 (nM) Untreated, HUVEC NFkB translocation assay [3] did it give?
Answer: 0.1 nM

B14: IL33-03 (ligand)
chain: MHHHHHHHHHHAAGLNDIFEAQKIEWHEAAIEGRSITGISPITEYLASLSTYNDQSITFALEDESYEIYVEDLKKDEKKDKVLLSYYESQHPSNESGDGVDGKMLMVTLSPTKDFWLHANNKEHSVELHKCEKPLPDQAFFVLHNMHSNSVSFECKTDPGVFIGVKDNHLALIKVDSSENLCTENILFKLSET
Question: B14 was tested. Which IC50 (nM) Untreated, HUVEC NFkB translocation assay [3] did it give?
Answer: 0.16 nM

B15: IL33-04 (ligand)
chain: MHHHHHHHHHHAAGLNDIFEAQKIEWHEAAIEGRSITGISPITEYLASLSTYNDQSITFALEDESYEIYVEDLKKDEKKDKVLLSYYESQHPSNESGDGVDGKMLMVTLSPTKDFWLHANNKEHSVELHKCEKPLPDQAFFVLHNMHSNCVSFESKTDPGVFIGVKDNHLALIKVDSSENLCTENILFKLSET
Question: How did the IC50 (nM) Untreated, HUVEC NFkB translocation assay [3] turn out when B15 was run?
Answer: 0.17 nM

B16: IL33-07 (ligand)
chain: MHHHHHHHHHHAAGLNDIFEAQKIEWHEAAIEGRSITGISPITEYLASLSTYNDQSITFALEDESYEIYVEDLKKDEKKDKVLLSYYESQHPSNESGDGVDGKMLMVTLSPTKDFWLHANNKEHSVELHKCEKPLPDQAFFVLHNMHSNCVSFESKTDPGVFIGVKDNHLALIKVDSSENLSTENILFKLSET
Question: Which IC50 (nM) Untreated, HUVEC NFkB translocation assay [3] does the source give for B16 here?
Answer: 0.22 nM
